Test [1] concerns the target T1, hIAPP 1–37 (Homo sapiens, UniProt P10997).
T1 construct: Synthetic human IAPP (1–37) was purchased from BACHEM; purchased BACHEM (Torrence, Calif.); host or cells: chemical synthesis
T1 sequence (P10997 34-70): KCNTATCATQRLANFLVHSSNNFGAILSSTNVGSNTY
Nature of the test: Circular dichroism (CD) of IAPP conformational change, random coil to β-sheet. In kind it is biochemical. Conditions: for inhibitory activity from the circular dichroism results, peptides from the 8–20 region (summary): FIGS. 9A to 16B; for effect on IAPP conformation (CD): higher molar ratios / higher concentrations; for effect on IAPP β-sheet formation / precipitation (CD): pH 6.5; for effect on initial random structure of IAPP (CD) / conformational change of IAPP (CD): time 0; for effect on initial random structure of IAPP (CD): 1:10 or 1:20 molar ratio; for effect on IAPP conformation (CD), peptides from the 8–20 region: 10-fold molar excess; for inhibition of IAPP β-sheet formation / fibril formation, overall statement (CD): molar ratio not stated; for description of activity on IAPP conformation (CD), peptides from the 8–20 region: concentration not given. From the text: (§1) FIG. 1 illustrates the sequence of the amyloid-β (Aβ) peptide and its proposed structural domains. A peptide-based approach similar to that used for Aβ (Tjernberg, et al, J Biol Chem 272:12601–12605, 1997) has been used for targeting two key domains in IAPP initially ranging from the 8–20 and 20–29 sequences as shown in FIG. 2. These peptides, as has been shown for Aβ peptides, are able to bind to the full-length IAPP peptide and alter fibrillogenesis. The peptides disrupt fibrillogenesis by disrupting the folding into the amyloidogenic β-sheet conformation, disrupting protofilament interactions, and/or interfering with side chain interactions within the folded IAPP, which are necessary for aggregation and fibril formation. The peptides that have been examined (shown in FIG. 2) were small, synthetic hexapeptides that correspond to the principal sequence domains of IAPP. […] The in vitro assays included: Circular Dichroism (CD), to look at changes in folding of the amyloidogenic β-sheet; negative stain electron microscopy (EM) to examine changes in fibril morphology and relative density; and ThT fluorescence assay which provides a quantitative assessment of fibril formation.
Synthetic human IAPP (1–37) was purchased from BACHEM (Torrence, Calif.), synthetic peptides spanning the region from IAPP 8 to 20 and 19–31 (FIG. 3) were synthesized by the Peptide Synthesis Laboratory at the University of Toronto using standard FMOC (Fluoroenylmethoxycarbonyl) based solid phase peptide synthesis methodology. The peptides were purified by reverse phase HPLC using water/acetonitrile mixtures buffered with 0. 1% trifluoroacetic acid, on a POROS 20R2 column. The synthetic peptides were solubilized in […] (1 mg/ml), filtered (0.2 μm), aliquotted and lyophilized (Higham, C E., et al., FEBS Lett. 470: 55–60, 2000). Aliquots were reconstituted as required in 20 mM sodium acetate buffer pH 6.5.
CD was used to measure the peptide conformational changes associated with fibril formation. CD experiments were carried out at room temperature, and spectra (average of 5 scans) were collected using a Jasco J720 spectropolarimeter and quartz cuvettes with a path length of 1 mm. […]
On the technique in general: Circular dichroism is widely used to follow secondary structure.

Test [2] deals with T1, hIAPP 1–37. Nature of the test: Negative stain electron microscopy of IAPP fibril morphology and density. In kind it is biochemical. Conditions: for effect on IAPP fibril morphology / density / aggregation (EM): molar ratio not stated.
From the text: as §1
TEM was used for structural analysis of in vitro assembled fibrils. Aliquots (4 μl) were applied to pioloform and carbon coated grids. The samples were incubated on the grids for 3 minutes at room temperature, excess material blotted off and stained with 1% phosphotungstic acid (PTA). Excess PTA was blotted off and the sample was left to air dry. All samples were examined using a Hitachi 7000 electron microscope with an accelerating voltage of 75 kV.
In preliminary work the series of peptides were synthesized from the 20–29 domain and examined, via CD, EM and ThT fluorescence, at two molar ratios (1:10 and 1:20) in comparison to the full-length IAPP residues 1–37. The following data (FIGS. 5A to 5D, 6A to 6C and 7A to 7B) were obtained.

The target in test [3] is T2, Synthetic human IAPP (1-37) (human, not fully specified).
T2 peptide: T1 sequence (P10997 34-70)
Nature of the test: cell-based or functional assay.

Entries after “also recorded” stand apart in the source; their conditions may differ. Some results are limits rather than exact numbers.

As for ATQRLA [FRA-012], in the test with hIAPP 1–37 [1], the “inhibitory activity from the circular dichroism results, peptides from the 8–20 region (summary)” value (shortened to “inhibitory activity”) is given as “have inhibitory activity” and the “effect on IAPP conformation (CD)” value was “limited inhibition”. Besides, the “effect on IAPP fibril morphology / density / aggregation (EM)” value with hIAPP 1–37 [2] is “only limited effects on the density and morphology of the fibrils”.

With ILSSTN, in the test with hIAPP 1–37 [1] (48-hour incubation), the “effect on IAPP β-sheet formation / precipitation (CD)” value was “little effect on the ability of hIAPP (1–37) to form a β-sheet”. In addition, in the test with hIAPP 1–37 [1], the “effect on initial random structure of IAPP (CD)” value (shortened to “effect … of IAPP (CD)”) was “had no effect on the initial random structure of IAPP”.

Turning to TQRLAN [FRA-013], in the test with hIAPP 1–37 [1], the “effect on IAPP conformation (CD), peptides from the 8–20 region” value is “enhanced formation of the beta-sheet conformation” and the “effect on IAPP conformation (CD)” value was “possibility of a random coil”. The “effect on IAPP fibril morphology / density / aggregation (EM)” value in the test with hIAPP 1–37 [2] is “significantly accelerated aggregation”.

With SSNNFG, in the test with hIAPP 1–37 [1] (1:1 molar ratio with IAPP), the “hIAPP conformation by CD” value is “maintained hIAPP (1–37) in a random coil conformation”. Also, the “effect on IAPP β-sheet formation / precipitation (CD)” value with hIAPP 1–37 [1] (48-hour incubation) is “capable of maintaining IAPP in a random conformation”. Further, in the test with hIAPP 1–37 [1], the “inhibition of IAPP β-sheet formation / fibril formation, overall statement (CD)” value is on record as “strong inhibitors of β-sheet formation; also recorded: effective inhibitors even when used at low concentrations” and the “effect … of IAPP (CD)” value was “had no effect on the initial random structure of IAPP”. For the same molecule, the “effect on IAPP fibril morphology / density / aggregation (EM)” value in the test with hIAPP 1–37 [2] is given as “typical high density of IAPP fibrils was not seen; also recorded: absence of fibrillar aggregates which could act as seeds”.

As for RLANFL [FRA-015], the “effect on IAPP fibril morphology / density / aggregation (EM)” value in the test with hIAPP 1–37 [2] is given as “enhanced lateral aggregation (ribbon structures); also recorded: significantly accelerated aggregation”.

For ANFLVH [FRA-019], in the test with hIAPP 1–37 [1], the “inhibitory activity” value was “have inhibitory activity” and the “description of activity on IAPP conformation (CD), peptides from the 8–20 region” value (“description of activity” for short) is on record as “maintained a random coil”. For the same molecule, in the test with hIAPP 1–37 [2], the “effect on IAPP fibril morphology / density / aggregation (EM)” value is reported as “lower density of IAPP fibrils”.

As for FGAILS, in the test with hIAPP 1–37 [1] (48-hour incubation), the “effect on IAPP β-sheet formation / precipitation (CD)” value is given as “little effect on the ability of hIAPP (1–37) to form a β-sheet”. In addition, in the test with hIAPP 1–37 [1], the “effect … of IAPP (CD)” value is listed as “had no effect on the initial random structure of IAPP”. Besides, in the test with hIAPP 1–37 [2], the “effect on IAPP fibril morphology / density / aggregation (EM)” value is reported as “had no effect on the morphology of IAPP fibrillar aggregates”.

With GAILSST, the “effect on IAPP conformation (CD)” value with hIAPP 1–37 [1] is “prevented the conformational change to β-sheet”.

As for SSNFGA, the “inhibition of normal IAPP fibrillar aggregation (EM)” value with hIAPP 1–37 [2] (reduced inhibitor concentrations) is “effective inhibitors of normal IAPP fibrillar aggregation”.

With NFGAIL, the “inhibition of IAPP β-sheet formation / fibril formation, overall statement (CD)” value with hIAPP 1–37 [1] is “not inhibitory; also recorded: may actually enhance IAPP fibril formation”. For the same molecule, the “conformational change of IAPP (CD)” value is recorded as “a conformational change at time 0” with hIAPP 1–37 [1] (10 fold excess) and “conformational change from random coil to β-sheet” in the test with hIAPP 1–37 [1] (20 fold excess). Besides, the “effect on IAPP fibrils (EM)” value in the test with hIAPP 1–37 [2] (20 fold molar excess) is listed as “appeared to enhance IAPP aggregation”. Moreover, the “effect on IAPP fibril morphology / density / aggregation (EM)” value with hIAPP 1–37 [2] is recorded as “slightly enhanced fibril formation; also recorded: had no effect on the morphology of IAPP fibrillar aggregates; also recorded: immediate increase in the development of fibrils”.

On to NNFGAI, for which the “effect on IAPP β-sheet formation / precipitation (CD)” value with hIAPP 1–37 [1] (48-hour incubation) was “little effect on the ability of hIAPP (1–37) to form a β-sheet”. Besides, the “effect on IAPP aggregation or precipitation (CD)” value with hIAPP 1–37 [1] (48-hour incubation, 10 fold molar excess) is given as “no effect on aggregation or precipitation of hIAPP”. In addition, in the test with hIAPP 1–37 [1] (48-hour incubation, 20-fold molar excess), the “IAPP conformation (CD)” value is reported as “maintain IAPP in a random conformation”. In the test with hIAPP 1–37 [1], the “inhibition of IAPP β-sheet formation / fibril formation, overall statement (CD)” value is given as “little, if any, inhibitory properties” and the “effect … of IAPP (CD)” value is reported as “had no effect on the initial random structure of IAPP”. For the same molecule, in the test with hIAPP 1–37 [2], the “effect on IAPP fibril morphology / density / aggregation (EM)” value is recorded as “had no effect on the morphology of IAPP fibrillar aggregates”.

As for FLVHSS [FRA-018], in the test with hIAPP 1–37 [1], the “inhibitory activity” value was “have inhibitory activity” and the “description of activity” value is recorded as “some modest inhibition”.

In the case of NFLVHS [FRA-017], in the test with hIAPP 1–37 [1], the “inhibitory activity” value was “have inhibitory activity” and the “description of activity” value is on record as “limited inhibitory activity”. For the same molecule, the “effect on IAPP fibril morphology / density / aggregation (EM)” value with hIAPP 1–37 [2] was “only limited effects on the density and morphology of the fibrils”.

Consider LANFLV [FRA-016], for which, in the test with hIAPP 1–37 [1], the “effect on IAPP conformation (CD), peptides from the 8–20 region” value is recorded as “relatively good inhibition”; the “inhibitory activity” value is recorded as “have inhibitory activity”; the “effect on IAPP conformation (CD)” value is recorded as “better activity”. Moreover, the “effect on IAPP fibrils (EM)” value in the test with hIAPP 1–37 [2] (10-fold excess) is “disruption of normal fibrils”. Besides, the “effect on IAPP fibrils (EM)” value with hIAPP 1–37 [2] (20 fold molar excess) is given as “Some fibrils were also seen”.

Take QRLANF [FRA-014]: the “effect on IAPP fibril morphology / density / aggregation (EM)” value with hIAPP 1–37 [2] is “significantly accelerated aggregation”.

As for AILSST, in the test with hIAPP 1–37 [1] (1:1 molar ratio with IAPP), the “hIAPP conformation by CD” value is reported as “no longer inhibitory”. Moreover, the “inhibition of IAPP β-sheet transition and aggregation (CD)” value with hIAPP 1–37 [1] (1:10 or 1:20 molar ratio (10- or 20-fold molar excess)) was “very strong inhibitors of IAPP β-sheet transition”. Also, the “hIAPP conformation by CD” value with hIAPP 1–37 [1] (5-fold molar excess) is “able to maintain hIAPP as a random coil peptide”. Besides, in the test with hIAPP 1–37 [1] (5-fold molar excess (1:5) or 1:1 molar ratio), the “inhibition of IAPP β-sheet conformational change at reduced concentrations (CD)” value was “capable of maintaining the majority of hIAPP in a random coil conformation”. Besides, the “effect on IAPP β-sheet formation / precipitation (CD)” value with hIAPP 1–37 [1] (48-hour incubation) is on record as “able to prevent the attenuation of signal due to precipitation of IAPP”. In the test with hIAPP 1–37 [1], the “effect on IAPP conformation (CD)” value is “prevented the conformational change to β-sheet”; the “inhibition of IAPP β-sheet formation / fibril formation, overall statement (CD)” value is recorded as “greatest inhibition of IAPP fibril formation”; the “effect … of IAPP (CD)” value is on record as “had no effect on the initial random structure of IAPP”. Also, the “effect on IAPP fibril morphology / density / aggregation (EM)” value with hIAPP 1–37 [2] is given as “fibrils formed were less numerous; also recorded: absence of fibrillar aggregates which could act as seeds”.

For the molecule SNNFGA, in test [3], the “sedimentation assay: soluble hIAPP remaining after 24 hours, 10 fold excess of peptide” value is about 15%; the “sedimentation assay: soluble hIAPP remaining after 48 hours, 10 fold excess of peptide” value was about 25%; the “sedimentation assay: soluble hIAPP remaining after 72 hours, 10 fold excess of peptide” value is about 20%.

As to NNFGAI, the “molar excess of peptide needed to keep IAPP in random conformation (CD, 48 hours)” value in test [3] was determined as 20 fold molar excess.

As to GAILSS, in test [3], the “sedimentation assay: soluble hIAPP remaining after 24 hours, 10 fold excess of peptide” value is over 80%; the “sedimentation assay: soluble hIAPP remaining after 48 hours, 10 fold excess of peptide” value was about 25%; the “sedimentation assay: soluble hIAPP remaining after 72 hours, 10 fold excess of peptide” value is about 20%.
